Test [1] addresses IL-1β. Kind of test: BLI (ForteBio Octet Red), target adsorbed on the probe. On the technique in general: BLI is a label-free optical method that tracks binding on a fibre tip over time.
The target in test [2] is T1, mouse TNFα (mouse, UniProt P06804 80-235).
T1 sequence (looked up): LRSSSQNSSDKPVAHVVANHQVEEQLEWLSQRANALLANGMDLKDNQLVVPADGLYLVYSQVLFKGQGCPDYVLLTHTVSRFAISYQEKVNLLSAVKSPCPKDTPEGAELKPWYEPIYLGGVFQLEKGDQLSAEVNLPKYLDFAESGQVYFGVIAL
Briefly: cell-based or functional assay.

Test [3] has as its target T1, mouse TNFα. Briefly: BLI (ForteBio Octet Red), target adsorbed on the probe.

Chain of IL-1β (P01584 117-269): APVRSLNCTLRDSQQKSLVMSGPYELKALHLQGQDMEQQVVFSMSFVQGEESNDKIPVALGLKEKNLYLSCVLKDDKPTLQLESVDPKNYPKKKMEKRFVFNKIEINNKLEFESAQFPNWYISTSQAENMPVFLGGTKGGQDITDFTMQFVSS

B1: (anti-IL-1β scFv antibody-EMCH)15-HyA (2000 kDa) (scFv)
scFv: SNAEIVMTQSPSTLSASVGDRVIITCQASQSIDNWLSWYQQKPGKAPKLLIYRASTLASGVPSRFSGSGSGAEFTLTISSLQPDDFATYYCQNTGGGVSIAFGQGTKLTVLGGGGGSGGGGSGGGGSGGGGSEVQLVESGGGLVQPGGSLRLSCTASGFSLSSAAMAWVRQAPGKGLEWVGIIYDSASTYYASWAKGRFTISRDTSKNTVYLQMNSLRAEDTAVYYCARERAIFSGDFVLWGQGTLVTVSSSPSTPPTPSPSTPPGGC
modifications: engineered cysteine thiol linked through EMCH (maleimide) to hyaluronic acid (HyA, 2000 kDa)
A word on the Kd: it is the constant that tells how readily two partners part at equilibrium. B1 registered a dissociation constant (Kd) in test [1] of 840 pM.

B2: (anti-IL-1β scFv antibody-EMCH)-CMC (700 kDa) (scFv)
scFv: SNAEIVMTQSPSTLSASVGDRVIITCQASQSIDNWLSWYQQKPGKAPKLLIYRASTLASGVPSRFSGSGSGAEFTLTISSLQPDDFATYYCQNTGGGVSIAFGQGTKLTVLGGGGGSGGGGSGGGGSGGGGSEVQLVESGGGLVQPGGSLRLSCTASGFSLSSAAMAWVRQAPGKGLEWVGIIYDSASTYYASWAKGRFTISRDTSKNTVYLQMNSLRAEDTAVYYCARERAIFSGDFVLWGQGTLVTVSSSPSTPPTPSPSTPPGGC
modifications: engineered cysteine thiol linked through EMCH (maleimide) to carboxymethyl cellulose (CMC, 700 kDa)
Molecule B2 displayed an equilibrium dissociation constant (Kd) in test [1] of 20 pM.

B3: (anti-(mouse)TNFα VHH antibody-EMCH)273-HyA (2000 kDa) (VHH)
VHH: QVQLQDSGGGLVQAGGSLRLSCAASGGTFSSIIMAWFRQAPGKEREFVGAVSWSGGTTVYADSVLGRFEISRDSARKSVYLQMNSLKPEDTAVYYCAARPYQKYNWASASYNVWGQGTQVTVSS
modifications: engineered cysteine thiol linked through EMCH (maleimide) to hyaluronic acid (HyA, 2000 kDa)
notes: Multivalent peptide-polymer conjugate: about 273 VHH per HyA chain
For the molecule B3, the “IC50 (nM), Bioactivity Data; assay not given, the filing describes IC50 from the L929 fibroblast cell survival assay with TNFα” value in test [2] came to 120 nM. The same molecule came in with a Kd in test [3] of 170 pM.
